Measurements as given in paper PMC5705597, “Molecular architecture of potassium chloride co-transporter KCC2” (Scientific Reports, 2017).
Values belong to the molecule of their own block, whether it stands above or below them.

Tests used:
KCC2 = target: T1, KCC2 (Homo sapiens, UniProt Q9H2X9); experiment: SPR (Biacore S200), steady-state Langmuir fit on immobilized purified KCC2; assay type: binding
T1 construct: gene SLC12A5; N-terminal tagged Flag-Avi-His-KCC2, residues 1–1116 of NP_065759 (human KCC2 isoform 2), purified full length
T1 sequence (Q9H2X9 1-1116 isoform Q9H2X9-2): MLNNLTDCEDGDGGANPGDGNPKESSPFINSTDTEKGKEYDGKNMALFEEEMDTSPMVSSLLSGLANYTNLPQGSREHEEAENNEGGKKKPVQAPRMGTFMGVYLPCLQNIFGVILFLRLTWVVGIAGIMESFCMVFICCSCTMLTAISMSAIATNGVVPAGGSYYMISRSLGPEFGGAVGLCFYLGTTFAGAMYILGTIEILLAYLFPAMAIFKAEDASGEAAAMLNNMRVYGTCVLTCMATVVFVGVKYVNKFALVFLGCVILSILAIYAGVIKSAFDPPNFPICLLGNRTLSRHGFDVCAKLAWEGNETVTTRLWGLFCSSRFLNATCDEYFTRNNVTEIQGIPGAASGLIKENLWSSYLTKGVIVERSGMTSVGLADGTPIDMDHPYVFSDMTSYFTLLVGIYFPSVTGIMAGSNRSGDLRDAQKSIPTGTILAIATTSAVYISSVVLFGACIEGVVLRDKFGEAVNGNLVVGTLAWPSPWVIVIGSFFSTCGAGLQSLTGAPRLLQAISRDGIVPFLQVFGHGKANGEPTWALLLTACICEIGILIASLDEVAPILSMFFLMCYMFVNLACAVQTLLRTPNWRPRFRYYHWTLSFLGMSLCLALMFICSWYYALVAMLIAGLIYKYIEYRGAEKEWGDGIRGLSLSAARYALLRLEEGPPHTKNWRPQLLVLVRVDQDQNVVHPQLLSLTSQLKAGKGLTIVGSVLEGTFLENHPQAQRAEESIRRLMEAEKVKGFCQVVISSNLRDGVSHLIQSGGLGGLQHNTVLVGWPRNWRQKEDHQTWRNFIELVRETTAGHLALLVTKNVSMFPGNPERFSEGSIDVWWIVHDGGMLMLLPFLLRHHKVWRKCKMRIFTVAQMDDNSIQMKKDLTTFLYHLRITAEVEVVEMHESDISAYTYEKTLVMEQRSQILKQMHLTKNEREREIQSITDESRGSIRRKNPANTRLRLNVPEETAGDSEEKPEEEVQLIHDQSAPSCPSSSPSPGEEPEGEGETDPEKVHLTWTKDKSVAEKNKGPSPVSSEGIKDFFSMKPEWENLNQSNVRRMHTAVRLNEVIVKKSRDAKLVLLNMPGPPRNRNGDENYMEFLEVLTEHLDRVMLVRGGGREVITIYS
Text: SPR (Biacore S200), steady-state Langmuir fit on immobilized purified KCC2 on KCC2 | Concentration-dependent binding of VU0463271 (blue diamonds) and non-specific control compound (red circles) on immobilized purified KCC2.

[1] = target: Flag-Avi-His-KCC2 (human potassium chloride co-transporter KCC2, N-terminally tagged) (human) (UniProt Q9H2X9); experiment: negative stain electron microscopy; gel filtration fractions of KCC2 monomers and dimers, 40 µg/ml in PBS, CALX-R3 1.5 mM, DDM 0.6 mM; 2% uranyl acetate; 2-D classes and 3-D models
[2] = target: Flag-Avi-His-KCC2 (human potassium chloride co-transporter KCC2, N-terminally tagged) (human) (UniProt Q9H2X9); experiment: native gel or EMSA; purified KCC2 in CALX-R3/DDM on 4-15% Clear Native PAGE (cathode buffer 7.5 mM imidazole, 0.05% deoxycholate, 0.01% DDM), 4 °C, Western blot with KCC2 antibody; with or without a freeze-thaw cycle
[3] = target: Flag-Avi-His-KCC2 (human potassium chloride co-transporter KCC2, N-terminally tagged) (human) (UniProt Q9H2X9); experiment: SEC; 50 µl purified KCC2 at 1 mg/ml on Superdex 200 Increase 5/150 GL, PBS, CALX-R3 1.5 mM, DDM 0.6 mM; fractions analysed by Clear Native PAGE and Western blot
[4] = target: Flag-Avi-His-KCC2 (human potassium chloride co-transporter KCC2, N-terminally tagged) (human) (UniProt Q9H2X9); experiment: cross-linking; purified KCC2 (5 µg) with glutaraldehyde 0-0.1% for 30 min at 4 °C, with or without DTT; SDS-PAGE and Western blot
[5] = target: T2, recombinant mouse KCC2 (mouse), Q91V14; experiment: native gel or EMSA; purified KCC2 in CALX-R3/DDM on 4-15% Clear Native PAGE (cathode buffer 7.5 mM imidazole, 0.05% deoxycholate, 0.01% DDM), 4 °C, Western blot with KCC2 antibody; with or without a freeze-thaw cycle; details: remark: other sources report otherwise
T2 chain: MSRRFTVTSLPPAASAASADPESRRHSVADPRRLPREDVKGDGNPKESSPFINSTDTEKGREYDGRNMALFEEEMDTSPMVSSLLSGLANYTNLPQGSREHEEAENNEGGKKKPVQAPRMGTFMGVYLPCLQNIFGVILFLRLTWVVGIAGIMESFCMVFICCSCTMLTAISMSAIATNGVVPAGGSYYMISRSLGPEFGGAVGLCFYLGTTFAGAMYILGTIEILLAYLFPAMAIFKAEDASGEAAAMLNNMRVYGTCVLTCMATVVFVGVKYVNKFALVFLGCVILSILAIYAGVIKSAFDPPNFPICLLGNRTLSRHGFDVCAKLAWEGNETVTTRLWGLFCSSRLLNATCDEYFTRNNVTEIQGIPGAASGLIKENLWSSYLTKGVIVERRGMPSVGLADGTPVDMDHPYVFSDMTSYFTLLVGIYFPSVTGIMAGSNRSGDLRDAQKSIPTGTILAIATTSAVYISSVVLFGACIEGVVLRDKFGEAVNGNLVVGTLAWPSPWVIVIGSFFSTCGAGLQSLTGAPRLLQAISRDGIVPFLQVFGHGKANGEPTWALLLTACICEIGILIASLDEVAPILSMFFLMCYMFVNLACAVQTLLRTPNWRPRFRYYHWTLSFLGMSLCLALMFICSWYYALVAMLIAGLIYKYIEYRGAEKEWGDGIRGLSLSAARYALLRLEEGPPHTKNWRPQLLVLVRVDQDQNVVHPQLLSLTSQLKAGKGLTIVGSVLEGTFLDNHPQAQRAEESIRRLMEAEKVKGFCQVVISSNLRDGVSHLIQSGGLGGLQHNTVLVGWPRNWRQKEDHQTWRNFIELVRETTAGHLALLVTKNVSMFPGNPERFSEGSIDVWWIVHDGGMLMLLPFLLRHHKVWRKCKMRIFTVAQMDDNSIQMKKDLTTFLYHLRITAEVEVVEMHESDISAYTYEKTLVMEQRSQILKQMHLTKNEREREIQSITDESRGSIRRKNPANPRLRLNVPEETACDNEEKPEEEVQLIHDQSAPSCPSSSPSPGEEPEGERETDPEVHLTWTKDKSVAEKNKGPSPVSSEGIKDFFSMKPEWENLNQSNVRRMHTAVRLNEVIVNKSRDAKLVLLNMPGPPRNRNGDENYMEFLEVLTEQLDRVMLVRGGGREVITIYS

- Kd (KCC2): 3 ± 2 µM
Molecule: Cc1csc(N(C(=O)CSc2ccc(-c3ccccc3)nn2)C2CC2)n1 [VU0463271]

- stoichiometry N [1]: 2
- stoichiometry N [2]: 2
- stoichiometry N [3]: 2
- stoichiometry N [4]: 2
Molecule: Flag-Avi-His-KCC2 (human potassium chloride co-transporter KCC2, N-terminally tagged) (from UniProt Q9H2X9-2 1-1116) (natural protein)

- stoichiometry N [5]: 2
B1: recombinant mouse KCC2, Q91V14 1-1138 (natural protein)
chain: T2 chain
